Experimental data published in article PMC8848936 (RNA, 2022).

Target: T1, Tsr1–TAP (S. cerevisiae, UniProt Q07381 1-788)
T1 sequence (looked up): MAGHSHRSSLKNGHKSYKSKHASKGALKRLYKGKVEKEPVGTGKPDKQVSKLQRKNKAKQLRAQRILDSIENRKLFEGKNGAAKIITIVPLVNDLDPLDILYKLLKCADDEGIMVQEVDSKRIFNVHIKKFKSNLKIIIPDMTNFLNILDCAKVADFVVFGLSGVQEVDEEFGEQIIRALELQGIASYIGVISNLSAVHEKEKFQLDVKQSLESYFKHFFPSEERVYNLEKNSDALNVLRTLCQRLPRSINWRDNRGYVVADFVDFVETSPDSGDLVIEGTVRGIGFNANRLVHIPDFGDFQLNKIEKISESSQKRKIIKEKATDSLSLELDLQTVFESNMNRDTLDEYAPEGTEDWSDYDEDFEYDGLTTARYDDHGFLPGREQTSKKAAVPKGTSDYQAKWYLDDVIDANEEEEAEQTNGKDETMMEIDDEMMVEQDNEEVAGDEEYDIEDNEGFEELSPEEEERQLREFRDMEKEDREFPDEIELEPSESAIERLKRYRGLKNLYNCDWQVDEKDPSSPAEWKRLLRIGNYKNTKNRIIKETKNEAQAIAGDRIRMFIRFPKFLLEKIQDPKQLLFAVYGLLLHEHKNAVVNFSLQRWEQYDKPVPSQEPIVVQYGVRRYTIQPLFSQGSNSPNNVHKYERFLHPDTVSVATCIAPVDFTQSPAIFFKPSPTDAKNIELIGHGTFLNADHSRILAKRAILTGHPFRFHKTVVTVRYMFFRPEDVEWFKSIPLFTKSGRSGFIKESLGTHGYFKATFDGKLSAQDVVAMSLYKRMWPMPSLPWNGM
Assay: co-sedimentation

B1: recombinant Rio2 (Rio2-HA) (natural protein, yeast, UniProt P40160 1-425, looked up)
chain: MKLDTSHMRYLTTDDFRVLQAVEQGSRSHEVVPTPLIHQISGMRSQSGTNRAISDLAKLSLISKMRNVKYDGYRLTYNGIDYLALKTMLNRDTVYSVGNTIGVGKESDIYKVSDKNGNPRVMKIHRLGRTSFHSVRNNRDYLKKSNQGANWMHLSRLAANKEYQFMSMLYSKGFKVPEPFDNSRHIVVMELIEGYPMRRLRKHKNIPKLYSDLMCFIVDLANSGLIHCDFNEFNIMIKDKLEDENDCGFVVIDFPQCISIQHQDADYYFQRDVDCIRRFFKKKLKYEPKPDSSMLDTEGFGDGYKYAYPDFKRDVKRTDNLDELVQASGFSKKHPGDRGLETAVESMRNAVYNSDDDMSNDEAEEENGEGDYSEEDEYYDSELDNESSEDDSEDAQEEENERIIEALSSGVENLKMDKLGNYILE
binding result: binds
